This is an account of results in patent US20050159354A1.

The target in assay [1] is neuronal receptor for agrin, on cultured mouse cortical neurons (mouse). The assay can be described thus: cell-based or functional assay.
The target is the same in assay [2]. The assay can be described thus: NIH Image analysis of immunofluorescence on cortical neurons; competitor C-Ag20z8 at 1:1 molar ratio (unpublished data).

Turning to “C-Ag15, 15-kD COOH-terminal fragment of mouse agrin (ligand)”, in assay [1], the IC50 of inhibition of c-fos induction by 50 pM C-Ag95z8 in cortical neurons turned out to be 64.5 pM and the inhibition of rescue of the agrin-deficient glutamate response by 5 nM C-Ag95z0 (10 nM C-Ag15) was found to be 54%.

In assay [1], “C-Ag20z0, 20-kD COOH-terminal fragment of mouse agrin, z0 splice variant (ligand)” registered an EC50 of c-fos induction in cortical neurons (in situ enzyme-linked immunoassay) of 0.0133 nM and a rescue of glutamate-induced Fos expression in agrin-deficient neurons (5 nM, 2 d) of 2.2 fold.

Take “C-Ag20z8, 20-kD COOH-terminal fragment of mouse agrin, z8 splice variant (ligand)”: in assay [1], the EC50 of c-fos induction in cortical neurons (in situ enzyme-linked immunoassay) is 0.0112 nM and the rescue of glutamate-induced Fos expression in agrin-deficient neurons (5 nM, 2 d) turned out to be 2.2 fold.

“C-Ag95z0, soluble 95-kD COOH terminus of mouse agrin, y4 z0 (from UniProt A2ASQ1 1144-1950) (ligand)” displayed an EC50 of c-fos induction in cortical neurons (in situ enzyme-linked immunoassay) in assay [1] of 0.0119 nM.

Substance “C-Ag95z8, soluble 95-kD COOH terminus of mouse agrin, y4 z8 (from UniProt A2ASQ1 1144-1950) (ligand)” returned an EC50 of c-fos induction in cortical neurons (in situ enzyme-linked immunoassay) in assay [1] of 0.0127 nM.

Take “rC-Agy4z8, soluble 95-kD COOH-terminal fragment of rat agrin, y4z8 isoform (from UniProt P25304 1153-1951) (ligand)”: the reduction of labeling (mean pixel intensity) in assay [2] stood at 30%.
